Laboratory results published in PMC5796892.

Tests used:
[1] = biological target: serum-derived MBL-associated serine proteases (MASPs) (human (endogenous in normal human serum)); assay: ELISA; normal human serum diluted 1:100 in veronal buffer saline bound to mannan-coated plate (37°C, 2 h), washed; rLdISP1/rLdISP2 0-50 µM added, 37°C, 2 h; bound ISP detected with anti-ISP1 or anti-ISP2 antibody
[2] = biological target: C1 complex (C1qr2s2) (human) (UniProt P02745); assay: ELISA; C1 complex at 25 µg/ml bound to human IgM-coated plate (37°C, 2 h); rLdISP1/rLdISP2 0-50 µM added, 37°C, 2 h; bound ISP detected with anti-ISP1 or anti-ISP2 antibody; Kd taken as the free ligand at half saturation
[3] = biological target: MBL-associated serine protease 2 (MASP2), serum-derived (human (endogenous in normal human serum))
[4] = biological target: C1 complex (C1qr2s2) (human) (UniProt P02745); assay: ELISA; C1 complex at 12.5 µg/ml bound to human IgM-coated plate (37°C, 2 h); rLdISP1/rLdISP2 0-50 µM added, 37°C, 2 h; bound ISP detected with anti-ISP1 or anti-ISP2 antibody; Kd taken as the free ligand at half saturation
[5] = biological target: C1 complex (C1qr2s2) (human) (UniProt P02745); assay: ELISA; C1 complex at 6.25 µg/ml bound to human IgM-coated plate (37°C, 2 h); rLdISP1/rLdISP2 0-50 µM added, 37°C, 2 h; bound ISP detected with anti-ISP1 or anti-ISP2 antibody; Kd taken as the free ligand at half saturation
[6] = biological target: MBL-associated serine protease 2 (MASP2), serum-derived (human (endogenous in normal human serum)); remark: listed apart in the source
[7] = biological target: serum-derived MBL-associated serine proteases (MASPs) (human (endogenous in normal human serum)); assay: ELISA; normal human serum diluted 1:50 in veronal buffer saline bound to mannan-coated plate (37°C, 2 h), washed; rLdISP1/rLdISP2 0-50 µM added, 37°C, 2 h; bound ISP detected with anti-ISP1 or anti-ISP2 antibody
[8] = biological target: neutrophil elastase (NE) from human leukocytes (human) (UniProt P08246)
Chain of neutrophil elastase (NE) from human leukocytes (human) (P08246 30-267): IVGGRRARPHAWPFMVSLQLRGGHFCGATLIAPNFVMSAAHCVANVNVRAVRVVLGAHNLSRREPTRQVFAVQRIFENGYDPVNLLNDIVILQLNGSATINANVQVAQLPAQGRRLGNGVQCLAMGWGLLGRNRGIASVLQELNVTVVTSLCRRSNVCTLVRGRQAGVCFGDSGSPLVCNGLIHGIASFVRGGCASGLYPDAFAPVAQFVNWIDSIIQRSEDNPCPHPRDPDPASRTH

[9] = biological target: C1 complex (C1qr2s2) (human) (UniProt P02745); assay: ELISA; C1 complex at 50 µg/ml bound to human IgM-coated plate (37°C, 2 h); rLdISP1/rLdISP2 0-50 µM added, 37°C, 2 h; bound ISP detected with anti-ISP1 or anti-ISP2 antibody; Kd taken as the free ligand at half saturation
[10] = biological target: C1 complex (C1qr2s2) (human) (UniProt P02745); assay: ELISA; C1 complex at 100 µg/ml bound to human IgM-coated plate (37°C, 2 h); rLdISP1/rLdISP2 0-50 µM added, 37°C, 2 h; bound ISP detected with anti-ISP1 or anti-ISP2 antibody; Kd taken as the free ligand at half saturation
[11] = biological target: MBL-associated serine protease 2 (MASP2), serum-derived (human (endogenous in normal human serum)); remark: listed apart in the source
[12] = biological target: MBL-associated serine protease 2 (MASP2), serum-derived (human (endogenous in normal human serum)); remark: listed apart in the source
[13] = biological target: C1 complex (C1qr2s2) (human) (UniProt P02745); assay: ELISA; C1 complex at 100 µg/ml bound to human IgM-coated plate (37°C, 2 h); rLdISP1/rLdISP2 0-50 µM added, 37°C, 2 h; bound ISP detected with anti-ISP1 or anti-ISP2 antibody; Kd taken as the free ligand at half saturation; remark: listed apart in the source
[14] = biological target: serum-derived MBL-associated serine proteases (MASPs) (human (endogenous in normal human serum)); assay: ELISA; normal human serum diluted 1:10 in veronal buffer saline bound to mannan-coated plate (37°C, 2 h), washed; rLdISP1/rLdISP2 0-50 µM added, 37°C, 2 h; bound ISP detected with anti-ISP1 or anti-ISP2 antibody

## recombinant L. donovani inhibitor of serine peptidases 2 (natural protein)
[1]
  Ka: 330000 M⁻¹
  Kd: 3000 nM
[2]
  Ka: 350000 M⁻¹
  Kd: 3000 nM
[3]
  C3 convertase (C3c) formation by all complement pathways in human serum with promastigotes, fold reduction at 10 and 50 µM rLdISP2 (~1.5, ~2.5-fold): 2.5 fold
  C3 convertase (C3c) formation by the lectin pathway (lectin pathway-specific serum), fold reduction at 10 and 50 µM rLdISP2 (~2, ~4-fold): 4 fold
  C5 convertase (C5c) formation by all three pathways, fold reduction at 10 and 50 µM rLdISP2 (~1.5, ~2.9-fold): 2.9 fold
  C5 convertase (C5c) formation by the lectin pathway, fold reduction at 10 and 50 µM rLdISP2 (~1.4, ~3.2-fold): 3.2 fold
[4]
  Ka: 310000 M⁻¹
  Kd: 3200 nM
[5]
  Ka: 280000 M⁻¹
  Kd: 3500 nM
[6]
  MAC (C5b-9) formation on promastigotes via the lectin pathway, fold decrease against active LPSS at 10 and 50 µM rLdISP2 (~1.5, ~2.3-fold): 2.3 fold
  complement-mediated lysis of promastigotes via the lectin pathway, fold reduction at 10 and 50 µM rLdISP2 (~1.8, ~2.5-fold): 2.5 fold
[7]
  Ka: 520000 M⁻¹
  Kd: 1900 nM
[8]
  C5aR expression (western blot) in macrophages treated with NE pre-incubated with 10 µM rLdISP2, fold increase against control: 2.5 fold
  enzyme activity of NE (50 nM; substrate N-methoxysuccinyl-Ala-Ala-Pro-Val-AMC), reduction at 0.1, 1 and 10 µM rLdISP2 (~49, ~60, ~82%): 82%
[9]
  Ka: 500000 M⁻¹
  Kd: 2000 nM
[10]
  Ka: 760000 M⁻¹
  Kd: 1300 nM
[11]
  C4b formation (C4 cleavage by serum-derived MASPs on mannan plate, sandwich ELISA), fold decrease against control at 10 and 50 µM rLdISP2 (~2.1, ~2.9-fold): 2.9 fold
[12]
  enzyme activity of serum-derived MASP2 (substrate Z-L-Lys-SBzl with DTNB), reduction against untreated serum at 5, 10 and 50 µM rLdISP2 (~30, ~44, ~60%): 60%
[13]
  Kd: 1600 nM
[14]
  Ka: 830000 M⁻¹
  Kd: 1200 nM

## recombinant Leishmania donovani inhibitor of serine peptidases 1 (natural protein)
[1]
  Ka: 310000 M⁻¹
  Kd: 3200 nM
[7]
  Ka: 450000 M⁻¹
  Kd: 2200 nM
[8]
  enzyme activity of NE (50 nM; substrate N-methoxysuccinyl-Ala-Ala-Pro-Val-AMC), inhibition at 10 µM rLdISP1: 27%
[14]
  Ka: 710000 M⁻¹
  Kd: 1400 nM
